# Measurements published in patent publication US20260265352A1, “STABLE PHARMACEUTICAL FORMULATION COMPRISING ANTI-GREMLIN1 ANTIBODY” (SUZHOU TRANSCENTA THERAPEUTICS CO., LTD., priority 2022, published 2026).
# T1: human Gremlin/GREM1 protein (Acro) (human, UniProt O60565 25-184)
# T1 construct: Bought protein (ACRO); also called hGREM1 (ACRO); human GREM1; not shown: his tag
# T1 sequence (looked up): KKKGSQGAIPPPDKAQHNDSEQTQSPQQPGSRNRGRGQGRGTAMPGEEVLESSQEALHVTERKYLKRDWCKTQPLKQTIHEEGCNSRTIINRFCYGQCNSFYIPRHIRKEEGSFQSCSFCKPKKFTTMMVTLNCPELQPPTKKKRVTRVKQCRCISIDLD
# T2: Human GREM1 (Homo sapiens, UniProt O60565)
# T2 construct: His; purchased ACRO
# T2 sequence (O60565 25-184): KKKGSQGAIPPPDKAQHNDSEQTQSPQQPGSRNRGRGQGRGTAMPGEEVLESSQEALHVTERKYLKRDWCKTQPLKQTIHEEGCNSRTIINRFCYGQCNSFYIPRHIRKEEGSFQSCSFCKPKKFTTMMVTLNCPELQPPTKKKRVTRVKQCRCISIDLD
# Key:
# [1] = tested on: esophageal cancer PDX model E7; assay: Tumor growth inhibition in esophageal cancer PDX model; format: in vivo, NOD/SCID mice; details: 26th day; antibody 20 mg/kg i.p. twice a week, cisplatin 3 mg/kg i.v. once a week, 4 weeks
# Source text: Human gremlin IHC specifically positive esophageal tumor tissue (E7) was obtained from Beijing Cancer Hospital passage in NOD/SCID mice and established PDX bank. […] Each mouse was subcutaneously inoculated with a small tumor tissue block approximately 3 mm in diameter which sheared from integrated tumor decollement form a tumor bearing mouse. 18 days after inoculation animals with tumor size at about 70 mmn^3 were selected and randomly divided into 4 groups, each group consisting of 8 mice. Then the mice were treated with isotype control+PBS, the anti-GREM1 antibody of the present disclosure at dose of 20 mg/kg, Cisplatin at dose of 3 mg/kg and combination of the anti-GREM1 antibody of the present disclosure and Cisplatin. Isotype control and the anti-GREM1 antibody of the present disclosure were administrated twice a week for 4 weeks by i.p. injection and PBS, while Cisplatin was administrated once a week for 4 weeks by i.v. injection. Animals were sacrificed at the end of the study with CO2 inhalation. Tumor size was measured twice or triple times a week in two dimensions using a caliper (INSIZE) and the volume was expressed in mmA3 using the formula: V=0.5 a*b^2 where a and b are the long and short diameters of the tumor, respectively. Results were analyzed using Prism GraphPad and expressed as mean±S.E.M. Comparisons between two groups were made by T-test, and the difference is considered significant if p is *<0.05 and **<0.01.
# [2] = target: human Gremlin/GREM1 protein (Acro) (human) (UniProt O60565); assay: ELISA, coated hGREM1 (ACRO)
# [3] = target: human Gremlin/GREM1 protein (Acro) (human) (UniProt O60565); assay: ELISA, binding to hGremlin-his
# [4] = target: human Gremlin/GREM1 protein (Acro) (human) (UniProt O60565); assay: BLI (ForteBio), human GREM1-his on NTA biosensor, antibody at 100, 50 and 25 nM
# [5] = target: modified human GREM1-his (human) (UniProt O60565); assay: blocking ELISA; competitor coated human BMP2; 1 ug/ml modified human GREM1-his detected with anti-his HRP
# [6] = target: modified human GREM1-his (human) (UniProt O60565); assay: blocking ELISA; competitor coated human BMP4; 1 ug/ml modified human GREM1-his detected with anti-his HRP
# [7] = target: T1, human Gremlin/GREM1 protein (Acro); assay: ELISA, coated hGREM1 (ACRO)
# Procedure: (§1) A transparent polystyrene culture plate (BEAVER) was coated with a high pH coating buffer containing 0.5 μg/ml hGREM1 (ACRO) and mouse gremlin (R&D) at 100 μl/well at 4° C. overnight. Then, the culture plate was washed once with PBS and 0.1% of Tween 20 (Sigma) on an automatic culture plate washer. 100 μl of a blocking solution consisting of PBS, 1% of BSA, 1% of standard goat serum and 0.50% of Tween 20 (Sigma) was added into each well for incubation at room temperature for 2 hours. Then, 100 μl of an antibody (started with 2 μg/ml and continuously diluted) in an antibody dilution buffer containing PBS, 1% of BSA, 1% of standard goat serum and 0.01% of Tween 20 was added into each well of the culture plate for incubation at room temperature for 1 hour. Then, the culture plate was washed with 200 μl of a solution containing PBS and 0.1% of Tween 20 for three times, and goat anti-mouse IgG-HRP (Abcam) at a ratio of 1:10000 was added at 100 μl/well for incubation at room temperature for 1 hour. Then, the culture plate was washed with a solution containing PBS and 0.1% of Tween 20 for 3 times. Finally, TMB (Pierce) was added into each well at 100 μl/well, and several minutes later, 50 μl of a termination solution was added into each well. The culture plate was read on a Multiscan FC microplate reader (Thermo Scientific) at 450 nM.
# [8] = target: T1, human Gremlin/GREM1 protein (Acro); assay: BLI (ForteBio), human GREM1-his on NTA biosensor
# Procedure: (§2) The concentration of 0 nM was used as a reference control. The antibody to be tested was diluted to a concentration of 100 nM, 50 nM and 25 nM with a ForteBio kinetic buffer (including PBS with a pH value of 7.4, 0.1% of BSA and 0.002% of Tween-20). […] Then, dissociation was performed in a kinetic buffer for 90 seconds to obtain Koff factor data.
# [9] = target: T1, human Gremlin/GREM1 protein (Acro); assay: BLI (ForteBio), human GREM1-his on NTA biosensor, antibody at 100, 50 and 25 nM
# Procedure: as §2
# Human GREM1 = target: T2, Human GREM1; assay: Binding affinity to human GREM1 through ELISA; details: for EC50 of binding to hGremlin-his: Table 17
# Procedure: as §1, with “nM. As shown in Table 16 and Table 17, compared with a reference antibody 6245P, the anti-GREM1 antibody used in the present disclosure and other humanized anti-GREM1 antibodies (e.g., Hu14E3_HaLb, Hu14E3_HbLa, Hu14E3_HbLb, Hu14E3_HcLa and Hu14E3_HcLb) have better binding affinity with human GREM1.” for “nM.”
# [10] = target: T1, human Gremlin/GREM1 protein (Acro); assay: ELISA, binding to hGremlin-his
# Procedure: as §1
molecule,measurement,setting,value
"N.N.[Cl][Pt][Cl] [Cisplatin, reference compound]",TGI (%),[1],59.79%
same,"Tumor size (mm^3, mean +/− S.E.M)",[1],479.41 +/− 104.05 mm^3
"reference antibody 6245P (antibody, from another filing, IgG4, V domains shown) VH: EVQLVESGGGLVQPGGSLRLSCAASGFTFNSFWMSWVRQAPGKGLEWVANIKQDGSEKYYVDSVKGRFTISRDNAKNSVYLQMNSLRAEDTAVYYCARDLVTSFDYWGQGTLVTVSS VL: DIQMTQSPSSLSASVGDRVTITCQASQDINNYLNWYQQKPGKAPKLLIYDASYLETGVPSGFSGSGSGTDFTFTISSLQPEDIATYYCQQYDSLPYTFGQGTKLEIK",EC50,[2],57.5 ng/mL
same,EC50,[3],57.5 ng/mL
same,Kd,[4],2.58 nM
same,IC50,[5],797 ng/mL
same,IC50,[6],638 ng/mL
"Hu14E3_HaLa (antibody, human IgG1, kappa, V domains shown, also called anti-GREM1 antibody used in the present disclosure; humanized 14E3) VH: QVQLVQSGSELKKPGASVKVSCKASGYTFTTYGMAWMRQAPGQGLEWMGWINTLSGEPTYADDFKGRFVFSLDTSVSTAYLQISSLKAEDTAVYYCAREPMDYWGQGTMVTVSS VL: DVVMTQSPLSLPVTLGQPASISCKSSQSLLDSDGKTYLSWLQQRPGQSPRRLIYLVSKLDSGVPDRFSGSGSGTDFTLKISRVEAEDVGVYYCWQGAHFPLTFGQGTKLEIKR",EC50,[7],6.9 ng/mL
same,Kd,[8],< 1 nM
same,Kd,[9],< 0.001 nM
"Hu14E3_HaLa: humanized 14E3, heavy chain variable region SEQ ID NO: 7, light chain variable region SEQ ID NO: 8; antibody used in the examples (antibody, V domains shown) VH: QVQLVQSGSELKKPGASVKVSCKASGYTFTTYGMAWMRQAPGQGLEWMGWINTLSGEPTYADDFKGRFVFSLDTSVSTAYLQISSLKAEDTAVYYCAREPMDYWGQGTMVTVSS VL: DVVMTQSPLSLPVTLGQPASISCKSSQSLLDSDGKTYLSWLQQRPGQSPRRLIYLVSKLDSGVPDRFSGSGSGTDFTLKISRVEAEDVGVYYCWQGAHFPLTFGQGTKLEIK",EC50 (ng/ml) Human GREM1,Human GREM1; Table 16,6.90 ng/mL
same,EC50 of binding to hGremlin-his,Human GREM1,6.9 ng/mL
same,TGI (%),[1],42.92%
same,"Tumor size (mm^3, mean +/− S.E.M)",[1],680.59 +/− 163.73 mm^3
"Hu14E3_HbLb (antibody, human IgG1, V domains shown, also called humanized 14E3) VH: QIQLVQSGSELKKPGASVKVSCKASGYTFTTYGMAWMRQAPGQGLEWMGWINTLSGEPTYADDFKGRFAFSLDTSVSTAYLQISSLKAEDTAVYYCAREPMDYWGQGTMVTVSS VL: DVVMTQSPLSLPVTLGQPASISCKSSQSLLDSDGKTYLSWLQQRPGQSPRRLISLVSKLDSGVPDRFSGSGSGTDFTLKISRVEAEDVGVYYCWQGAHFPLTFGQGTKLEIK",EC50 of binding to hGremlin-his,Human GREM1,6.2 ng/mL
same,EC50,[10],6.2 ng/mL
"Hu14E3_HcLa (antibody, human IgG1, V domains shown, also called humanized 14E3) VH: QIQLVQSGSELKKPGASVKVSCKASGSTFTTYGMAWMKQAPGQGLTWMGWINTLSGEPTYADDFKGRFAFSLDTSVSTAYLQISSLKAEDTAVYYCAREPMDYWGQGTMVTVSS VL: DVVMTQSPLSLPVTLGQPASISCKSSQSLLDSDGKTYLSWLQQRPGQSPRRLIYLVSKLDSGVPDRFSGSGSGTDFTLKISRVEAEDVGVYYCWQGAHFPLTFGQGTKLEIK",EC50 of binding to hGremlin-his,Human GREM1,6.6 ng/mL
same,EC50,[10],6.6 ng/mL
"Hu14E3_HcLb (antibody, human IgG1, V domains shown, also called humanized 14E3) VH: QIQLVQSGSELKKPGASVKVSCKASGSTFTTYGMAWMKQAPGQGLTWMGWINTLSGEPTYADDFKGRFAFSLDTSVSTAYLQISSLKAEDTAVYYCAREPMDYWGQGTMVTVSS VL: DVVMTQSPLSLPVTLGQPASISCKSSQSLLDSDGKTYLSWLQQRPGQSPRRLISLVSKLDSGVPDRFSGSGSGTDFTLKISRVEAEDVGVYYCWQGAHFPLTFGQGTKLEIK",EC50 of binding to hGremlin-his,Human GREM1,6.1 ng/mL
same,EC50,[10],6.1 ng/mL
"Hu14E3_HaLb (antibody, human IgG1, V domains shown, also called humanized 14E3) VH: QVQLVQSGSELKKPGASVKVSCKASGYTFTTYGMAWMRQAPGQGLEWMGWINTLSGEPTYADDFKGRFVFSLDTSVSTAYLQISSLKAEDTAVYYCAREPMDYWGQGTMVTVSS VL: DVVMTQSPLSLPVTLGQPASISCKSSQSLLDSDGKTYLSWLQQRPGQSPRRLISLVSKLDSGVPDRFSGSGSGTDFTLKISRVEAEDVGVYYCWQGAHFPLTFGQGTKLEIK",EC50 of binding to hGremlin-his,Human GREM1,5.6 ng/mL
same,EC50,[10],5.6 ng/mL
"Hu14E3_HbLa (antibody, human IgG1, V domains shown, also called humanized 14E3) VH: QIQLVQSGSELKKPGASVKVSCKASGYTFTTYGMAWMRQAPGQGLEWMGWINTLSGEPTYADDFKGRFAFSLDTSVSTAYLQISSLKAEDTAVYYCAREPMDYWGQGTMVTVSS VL: DVVMTQSPLSLPVTLGQPASISCKSSQSLLDSDGKTYLSWLQQRPGQSPRRLIYLVSKLDSGVPDRFSGSGSGTDFTLKISRVEAEDVGVYYCWQGAHFPLTFGQGTKLEIK",EC50 of binding to hGremlin-his,Human GREM1,6.0 ng/mL
same,EC50,[10],6 ng/mL
